According to the supplement of paper PMC10567573:
± gives the standard deviation.

Assay: protein stability index of a GFP-peptide fusion (GPS, HEK-293T) (PSI 1-6); higher = more stable
Conditions: c terminus: a fixed tail appended
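Note: 24-mer peptide tiles fused after GFP, lentivirally expressed, FACS-sorted into six equal bins by GFP/DsRed ratio, decoded by Illumina sequencing, PSI is the read-weighted mean bin number.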

| Sequence | protein stability index (treatment: DMSO) | protein stability index (treatment: MLN4924 1 uM, 8 h) |
| --- | --- | --- |
| KRSVYIDARDEELEKDTMDNWDEK [ZC3H15] | 4.98 ± 0.31 | 4.88 ± 0.24 |
| ARYTMPSSLLAPAKHLIASMLSKN [PLK2] | 2.51 ± 0.39 | 2.91 ± 0.72 |
| TKKGFYSLSVRHRQVKHYRIFRLP [SLA] | 2.54 ± 0.45 | 2.54 ± 0.31 |
| RRYLEKSIKMGKRNGLHLPEQVQN [NLN] | 3.2 ± 0.42 | 3.23 ± 0.23 |
| PILKRKLPGSDVSGRLMGSPPVPG [FBXO28] | 3.9 ± 0.3 | 4 ± 0.1 |
| RGFQEENKALWENNKLKLQQKLVI [CBY2] | 3 ± 0.29 | 3.15 ± 0.43 |
| DRPDLSLTVLPKLQARERGEEQVE [C2CD2L] | 5.37 ± 0.13 | 5.27 ± 0.16 |
| KWLSCGFMLEIVTPTSLSSLSNAV [FBXO33] | 3.04 ± 0.57 | 3.57 ± 0.76 |
| SHEDVCVFKCSVSRETECSRVGKQ [CARM1] | 4.11 ± 0.25 | 4.12 ± 0.31 |
| AGEGLVRSANGFPYREDEEGAFGE [MAP2] | 5.27 ± 0.18 | 5.24 ± 0.38 |
| EFGYNAETQKLLCKNGETLLGAVN [ARFIP2] | 3.31 ± 0.042 | 3.29 ± 0.38 |
| AHSSDVLENVFSSLTDDKYDVAMN [GOLPH3L] | 4.74 ± 0.21 | 4.7 ± 0.3 |
| LEQPFLSVFKKGRRRVPVRNLGKV [PLEKHN1] | 3.19 ± 0.31 | 3.56 ± 0.58 |
| MKLSLGGSEMGLSSHLQSSKAGPT [KLHL13] | 3.79 ± 0.26 | 3.57 ± 0.29 |
| VTYSLLKRLKERSLDTLLEAVESR [SMAD6] | 2.26 ± 0.17 | 2.33 ± 0.29 |
| TELSFLVTTHQPTNLVLPSNGSMH [EDNRA] | 2.67 ± 0.33 | 2.44 ± 0.42 |
| YCHPDSETDEDEEEGDEQQRLLNT [GMCL1] | 5.33 ± 0.37 | 5.2 ± 0.36 |
| GPPPGAPHTPQTPGQGGPASTPAQ [NR2F2] | 5.34 ± 0.18 | 5.34 ± 0.16 |
| LGALHTSSKPTALPSASSAYFPGQ [SASS6] | 3.59 ± 0.29 | 3.67 ± 0.45 |
| ALEAAVHVQKLSQECLKQLAIKKQ [TRIM14] | 3.91 ± 0.16 | 3.54 ± 0.52 |
| RRDEQDDDDKGDSKETRLTLMEEV [GOLPH3] | 5.58 ± 0.23 | 5.51 ± 0.2 |
| NNHESLDEELHLLIISCRKLFYFK [FBXO39] | 2.25 ± 0.32 | 2.12 ± 0.16 |
| DKVLGTFEFDETSFWNSSHPRGWN [KLHDC2] | 2.93 ± 0.45 | 3.23 ± 0.61 |

| Sequence | protein stability index (treatment: DMSO) | protein stability index (treatment: MLN4924 1 uM, 8 h) |
| --- | --- | --- |
| GRARATGGDLEEQQHAEGSPEPGT [DNAAF3] | 5.59 ± 0.3 | 5.54 ± 0.23 |
| EPPPALPPAADAPVTQIGFEAPPL [TRIM55] | 5.24 ± 0.22 | 5.39 ± 0.11 |
| KDLFEEKIKKSPLTICYPEYAGSN [GNAI1] | 3.96 ± 0.36 | 4.09 ± 0.21 |
| VLTDSNHVPLQRLSLLVHNVSVMH [FBXO33] | 1.96 ± 0.3 | 2.22 ± 0.28 |
| TVLTRSLFLGRILSLTSSASRLLT [FANCE] | 2.72 ± 0.13 | 2.81 ± 0.2 |
| DWFSGHLNFQIEHHLFPTMPRHNY [FADS1] | 2.15 ± 0.48 | 2.07 ± 0.25 |
| EEDIQGPTKADTEKWAEGGGHSRE [CHGB] | 5.52 ± 0.17 | 5.38 ± 0.28 |
| LHAWEMKPYAVMVFQTEQKNLFRL [N4BP2L1] | 2.44 ± 0.61 | 2.41 ± 0.41 |
| VPTCSMCKVFGIHKACEVAPLQSV [TRIM63] | 2.64 ± 0.32 | 2.73 ± 0.14 |
| LKVRSHDPEEAIRHDVIVSIVTAA [PDS5B] | 2.43 ± 0.19 | 2.35 ± 0.27 |
| TISFRIYKSVLQAVQKTDEGHPFK [RTN1] | 2.13 ± 0.17 | 2.28 ± 0.13 |
| LRTTVHHAFPVVTENRGNEKEFMK [CLCN6] | 4.05 ± 0.27 | 4.38 ± 0.098 |
| KEQDVEKELRDGGEQDTWAGEGAE [NFE2L1] |  | 5.83 ± 0.073 |
| IRNRGYNLIYRSTRHLKRLALMIQ [TMEM192] | 3.02 ± 0.16 | 2.97 ± 0.38 |
| SAHRALYRRHVLGIVLQGPALCFA [TMEM175] | 2.71 ± 0.62 | 2.58 ± 0.62 |
| QDACQAQAREKELLELQSQQACTH [CCDC89] | 4.91 ± 0.29 | 4.9 ± 0.2 |
| LGKIFDLIGLPPEDDWPRDVSLPR [CDK4] | 2.34 ± 0.5 | 2.42 ± 0.13 |
| IHTGIKPHQCSECGRAFSRKSLLV [ZNF649] | 2.56 ± 0.37 | 2.18 ± 0.4 |
| AFARQAAQEPSAVPRAGPLTVNTE [FOXJ1] | 4.54 ± 0.17 | 4.49 ± 0.24 |
| SSRQEKRPLCAQGDWHSPTLIREK [ELOA2] | 4.05 ± 0.24 | 4.23 ± 0.25 |
| AAEEPGVRGLLASLFAFKSFRENW [C2CD2L] | 2.44 ± 0.19 | 2.65 ± 0.032 |
| HCRENAHDKIRPISSIGQVQSYME [SPACA9] | 3.44 ± 0.22 | 3.29 ± 0.26 |
| LGQHMVEQLLARGYAVNVFDIQQG [NSDHL] | 2.72 ± 0.9 | 2.22 ± 0.57 |

| Sequence | protein stability index (treatment: DMSO) | protein stability index (treatment: MLN4924 1 uM, 8 h) |
| --- | --- | --- |
| VQHQRVHTGEKPYKCLECGKAFSQ [ZNF24] | 3.29 ± 0.55 | 3.66 ± 0.46 |
| FGIEIEVTDINDNAPKFQAENLDV [PCDHGA10] | 3.5 ± 0.56 | 3.98 ± 0.38 |
| SETDFETEPETAPTTEPETEPEDD [GNAS] | 5.69 ± 0.19 | 5.581 ± 0.055 |
| AKLVPMGFTTATEFHQRRSEIIQI [RAD51] | 2.56 ± 0.6 | 1.98 ± 0.12 |
| LDKSTKLVETAIQSLDEPGGATFL [TRIM63] | 4.13 ± 0.29 | 4.17 ± 0.28 |
| TSRTQVYKPPALKKSNSPGTASSG [ZC2HC1A] | 4.42 ± 0.15 | 4.46 ± 0.17 |
| RKMSLLKFLAKVNGSDPRSFPLWY [MAGEA10] | 2.38 ± 0.63 | 2.01 ± 0.22 |
| LAWASYDQTGKEVADRWYSEIKNY [GLIPR2] | 2.87 ± 0.5 | 3.05 ± 0.23 |
| RAQMIRNEYRKLHPVLHKEEKQHL [TRIM43] | 3 ± 0.37 | 3.73 ± 0.2 |
| NRASLYSFPEPEAAQPMTKKRKVD [PRAME] | 4.54 ± 0.27 | 4.74 ± 0.14 |
| FGFFFGRTPLIKLSPKKTWEGFIG [CDS1] | 2.47 ± 0.48 | 2.18 ± 0.57 |
| LLDNPLCADVLFILQDQEHIFAHR [RHOBTB1] | 2.36 ± 0.35 | 2.17 ± 0.11 |
| AMEKFREDEGFLREEERPLPRRDF [KCNA3] | 4.74 ± 0.23 | 4.74 ± 0.17 |
| GGYGFGRGRASGFAGSMFGSVALG [KRT71] | 3.05 ± 0.6 | 2.96 ± 0.25 |
| SVPDVPKSMAWCENSICVGFKRDY [VPS39] | 2.91 ± 0.16 | 2.94 ± 0.25 |
| SQVQVSLEDYINDRQYDSRGRFGE [HNF4A] | 4.01 ± 0.14 | 4.18 ± 0.14 |
| SFSEEGAVGYSSDSETLDLEEAEG [NFE2L1] | 5.75 ± 0.38 | 5.18 ± 0.5 |
| SLENSLREVEARYALQMEQLNGIL [KRT18] | 2.15 ± 0.23 | 2.52 ± 0.26 |
| QGSRGLTDQAIFYAVTPLPWCPHL [HDAC6] | 2.64 ± 0.66 | 2.41 ± 0.46 |
| ESGVDVNSQNEVNGWTCLHWACKR [ANKRD40] | 3.06 ± 0.22 | 3.31 ± 0.46 |
| PLTFDKNENMAAKKKSVAMHTNYL [GNB5] | 3.33 ± 0.26 | 3.46 ± 0.26 |
| SQSSTYRGTYEQDGRFEKRQGNPS [ZNF396] | 4.74 ± 0.3 | 4.79 ± 0.31 |
| ARRRQSAGPWPRPKGSLSMGPAPR [RASAL3] | 3.81 ± 0.25 | 4.03 ± 0.33 |

| Sequence | protein stability index (treatment: DMSO) | protein stability index (treatment: MLN4924 1 uM, 8 h) |
| --- | --- | --- |
| DQWTPIAAMLRGQSDVGVAVFENK [KLHL13] | 3.53 ± 0.2 | 3.42 ± 0.2 |
| YLSPLERKRLAREMQLSEVQIKTW [VENTX] | 2.5 ± 0.2 | 2.7 ± 0.24 |
| VNKLKWNLAAMTPHDFIEHFLSKM [CCND1] | 2.25 ± 0.35 | 2.51 ± 0.25 |
| TWKSGKQTMLSHYRPFYVNKGNGI [TRIM29] | 2.36 ± 0.41 | 2.4 ± 0.2 |
| HRELLRLESRIRDVHELFLQMAVL [STX11] | 2.49 ± 0.33 | 2.4 ± 0.28 |
| VMAWVKYSIQERRPQLPQVLQHVR [KLHL20] | 2.41 ± 0.37 | 2.04 ± 0.34 |
| EFNGLKKMNPKLKTLLAIGGWNFS [CHIT1] | 2.44 ± 0.57 | 2.32 ± 0.34 |
| WVHKHFTEDIQTRQYRSIEVLIGA [SRPK2] | 2.37 ± 0.18 | 2.27 ± 0.41 |
| EVLENVFRVNCYPGIDIREDLAQK [HESX1] | 2.46 ± 0.31 | 2.35 ± 0.66 |
| EKVLDQVETELQRRNEETPEEGQQ [GDAP1] | 5.68 ± 0.14 | 5.64 ± 0.093 |
| QTEPQDRSPAPMSCDKSTQTPSPP [BCL2L11] | 5.58 ± 0.14 | 5.38 ± 0.23 |
| EQDAACGFCFFNSVAVAARHAQTI [HDAC6] | 1.99 ± 0.83 | 1.95 ± 0.21 |
| WGRLTSYSGGGYYLDLPGSRQGSA [PKD2L1] | 2.63 ± 0.18 | 2.69 ± 0.18 |
| SSLFDLSVLKLHHSLQQSEPDLRH [SERTAD1] | 3.23 ± 0.21 | 3.29 ± 0.3 |
| HMVKISGGPHISYPPLHEWVLREG [MAGEA3] | 2.29 ± 0.34 | 2.43 ± 0.35 |
| EDDIRPDIKDDIYDPTYKDKEGPS [SCD] | 5.46 ± 0.39 | 5.37 ± 0.34 |
| IHSREKRGDSVKVENPSTASHSLS [ZNF649] | 4.97 ± 0.26 | 5.22 ± 0.15 |
| MNVMLKSSPVDLVTATDQKVEKML [IMPA1] | 3.832 ± 0.018 | 3.96 ± 0.49 |
| PELNNNQYNRSSNSNGGNLNSPPG [CDC14A] | 4.98 ± 0.15 | 4.84 ± 0.27 |
| HLSRQKIDPLLYMTEWFMCAFSRT [TBC1D10A] | 2.8 ± 0.31 | 2.67 ± 0.55 |
